The assay deals with Recombinant human caspase-9 (active) (human) (UniProt P55211). In words: enzyme inhibition assay (fluorogenic substrate cleavage); one unit of active recombinant human caspase incubated with various concentrations of peptide inhibitor in 100 mM NaCl, 50 mM HEPES, 10 mM DTT, 1 mM EDTA, 10% glycerol, 0.1% CHAPS, pH 7.4, 37°C, 30 min; then 200 μM substrate (Ac-DEVD-MCA for caspases-3 and -7, Ac-IETD-MCA for caspase-8, Ac-LEHD-MCA for caspase-9); apparent Ki = IC50/(1+[S]/Km).

Results on 2 molecules are retold here after PMC1931592.

Recombinant human caspase-9 (active) (human), sequence (P55211 whole entry): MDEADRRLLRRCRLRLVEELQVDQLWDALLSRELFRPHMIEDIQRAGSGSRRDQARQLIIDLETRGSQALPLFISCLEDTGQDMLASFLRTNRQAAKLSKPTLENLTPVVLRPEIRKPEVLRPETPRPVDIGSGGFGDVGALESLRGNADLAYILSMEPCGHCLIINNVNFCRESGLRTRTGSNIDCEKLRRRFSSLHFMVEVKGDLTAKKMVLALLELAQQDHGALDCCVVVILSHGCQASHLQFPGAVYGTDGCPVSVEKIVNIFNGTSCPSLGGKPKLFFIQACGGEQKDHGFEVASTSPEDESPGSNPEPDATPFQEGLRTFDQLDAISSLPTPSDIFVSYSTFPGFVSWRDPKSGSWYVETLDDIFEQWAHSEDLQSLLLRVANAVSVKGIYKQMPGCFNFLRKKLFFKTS

B1: Ac-DQTD-CHO (peptide)
peptide: Ac-DQTD-aldehyde
SMILES: CC(=O)N[C@@H](CC(=O)O)C(=O)N[C@@H](CCC(N)=O)C(=O)N[C@H](C(=O)N[C@H](C=O)CC(=O)O)[C@@H](C)O
Consider B1, for which the Ki stood at 14.5 nM.

B2: Ac-DMQD-CHO (peptide)
peptide: Ac-DMQD-aldehyde
SMILES: CSCC[C@H](NC(=O)[C@H](CC(=O)O)NC(C)=O)C(=O)N[C@@H](CCC(N)=O)C(=O)N[C@H](C=O)CC(=O)O
Turning to B2, the Ki is above 200 nM.
